Legend:
Sso7c4 wild-type [1] = biological target: T1, Sso7c4 wild-type (Sulfolobus solfataricus P2, UniProt A0A0E3K9N8 1-54); assay: tryptophan fluorescence quenching; 20 mM Tris-Cl pH 7.5, no added salt, 25 C; FP with 100 nM FAM-DNA, 1 h at room temperature; details: protein: recombinant; chain copies: 2; blunt, self-complementary
Target sequence in this assay (A0A0E3K9N8 entry or part of it): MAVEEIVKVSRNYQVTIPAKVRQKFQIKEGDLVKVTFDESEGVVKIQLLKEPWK

[2] = biological target: T2, C-terminally truncated Sso7c4 (Sulfolobus solfataricus P2, UniProt A0A0E3K9N8 1-48, del49-54); assay: fluorescence polarization; 20 mM Tris-Cl pH 7.5, no added salt, 25 C; FP with 100 nM FAM-DNA, 1 h at room temperature; details: protein: recombinant; chain copies: 2; label: 5'-FAM; blunt, self-complementary
T2 chain: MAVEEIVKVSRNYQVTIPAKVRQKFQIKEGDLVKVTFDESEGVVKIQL

Sso7c4 wild-type [3] = biological target: T1, Sso7c4 wild-type; assay: as above; details: protein: recombinant; chain copies: 2; label: 5'-FAM; blunt, self-complementary
Target sequence in this assay (A0A0E3K9N8 entry or part of it): as the sequence (A0A0E3K9N8 entry or part of it) above

Sso7c4-R11A = Sso7c4-R11A (Sulfolobus solfataricus P2, UniProt A0A0E3K9N8 1-54, R11A); assay: as above; details: protein: recombinant; chain copies: 2; label: 5'-FAM; blunt, self-complementary
Sequence of Sso7c4-R11A (A0A0E3K9N8 entry or part of it R11A | R11A R11A): as the sequence (A0A0E3K9N8 entry or part of it) above, with R11A counted along it

Sso7c4-R22A = Sso7c4-R22A (Sulfolobus solfataricus P2, UniProt A0A0E3K9N8 1-54, R22A); assay: as above; details: protein: recombinant; chain copies: 2; label: 5'-FAM; blunt, self-complementary
Sequence of Sso7c4-R22A (A0A0E3K9N8 entry or part of it R22A | R22A R22A): as the sequence (A0A0E3K9N8 entry or part of it) above, with R22A counted along it

[4] = biological target: T2, C-terminally truncated Sso7c4; assay: bulk FRET; saturating protein; slight change; 20 mM Tris-Cl pH 7.5, no added salt, 25 C; FP with 100 nM FAM-DNA, 1 h at room temperature; details: protein: recombinant; chain copies: 2; label: Cy3 and Cy5 on the 5' ends; blunt
Sso7c4 wild-type [5] = biological target: T1, Sso7c4 wild-type; assay: bulk FRET; saturating protein; DNA bent; 20 mM Tris-Cl pH 7.5, no added salt, 25 C; FP with 100 nM FAM-DNA, 1 h at room temperature; details: protein: recombinant; chain copies: 2; label: Cy3 and Cy5 on the 5' ends; blunt
[6] = biological target: T2, C-terminally truncated Sso7c4; assay: bulk FRET; saturating protein; DNA straightened; 20 mM Tris-Cl pH 7.5, no added salt, 25 C; FP with 100 nM FAM-DNA, 1 h at room temperature; details: protein: recombinant; chain copies: 2; label: Cy3 and Cy5 on the 5' ends; blunt

B1: 20-bp DNA unlabeled (dsDNA)
DNA 1: CCAACACTGGCCAGTGTTGG
DNA 2: CCAACACTGGCCAGTGTTGG
For B1, which Kd (Sso7c4 wild-type [1]) is on record?
The Kd was 22.8 µM.

B2: 5'-FAM-8-bp DNA (dsDNA)
DNA 1: CGCTAGCG
DNA 2: CGCTAGCG
What does the source list for B2?
Kd [2]: 15.9 ± 0.53 µM; Kd (Sso7c4 wild-type [3]): 14.2 ± 0.26 µM

B3: 5'-FAM-20-bp DNA (dsDNA)
DNA 1: CCAACACTGGCCAGTGTTGG
DNA 2: CCAACACTGGCCAGTGTTGG
For B3, which Kd [2] is on record?
Its Kd is 12 ± 0.53 µM.

And the Kd (Sso7c4 wild-type [3])?
Its Kd is 2.73 ± 0.18 µM.

What about the Kd (Sso7c4-R11A) of the same binder?
The Kd was 3.19 ± 0.12 µM.

And the Kd (Sso7c4-R22A)?
The Kd was 5.07 ± 0.15 µM.

B4: 5'-FAM-10-bp DNA (dsDNA)
DNA 1: CCTACGTAGG
DNA 2: CCTACGTAGG
Which results are given for B4?
Kd [2]: 11 ± 0.41 µM; Kd (Sso7c4 wild-type [3]): 3.12 ± 0.16 µM

B5: 24 bp FRET DNA (dsDNA)
DNA 1: CGTGCTCTGCGATCTCTTCGATAA
DNA 2: TTATCGAAGAGATCGCAGAGCACG
What does the source list for B5?
binding result [4]: binds; binding result (Sso7c4 wild-type [5]): binds

B6: 30 bp FRET DNA (dsDNA)
DNA 1: CGTGCTCTGCGATCTCTTCGATAACCATAG
DNA 2: CTATGGTTATCGAAGAGATCGCAGAGCACG
Does B6 bind [6]?
Result: binds

Does B6 bind (Sso7c4 wild-type [5])?
Result: binds
